The source of these data is patent publication US20250027068.

First the molecules themselves.
B1: PRT-76 (protein)
chain: MANQEIRYSEVTPYHITSVWTKGVTPPAKFTQGEDVFHAPYVANQGWYDITKTFNGKDDLLCGAATAGNMLHWWFDQNKEEIEAYLKKHPEKQKIMFGDQELLDVRKVINTKDSQTNSALFNYFKDKAFPNLSARRLGVMPDLVLDMFINGYYLNVYKTQTTDVNRTYQTKDRRGGIFDAVFTRGDQSKLLTERHDFKEKTLKEISDLIKQELTEGKALGLSHTYANVRINHVINLWGADFDSNGNLEAIYVTDSDSNASIGMKKYFVGVNSAGKVAISAKEIKEDNIGAQVLGLFTLSTGQDIWNQTN
B2: PRT-79 (protein)
chain: MANQEIRYSEVTPKTITSVWTKGVTPPAKFTQNEDVFHAPYVANQGWYDITKTFNGKDDLLCGAATAGNMLHWWFDQNKEQIEAYLKKHPEKQKIMFGDQELLDVRKVINTKDDQTNSELFNYFKDKAFPNLSARRLGVMPDLVLDMFINGYRLNVGKTQTTDVNRTYQDKDPRGGIFDAVFTRGDQSKLLTSRHDFKEKNLKEISDLIKQELTEGKALGLSHTYANVRINHVINLWGADFDSEGNLEAIYVTDSDSNASIGMKKYFVGVNSAGKVAISAKEIEEDNIGAQVLGLFTLSTGQDIWEQTN
B3: PRT-70 (protein)
chain: MANQEIRYSEVTPYHVTSVWTKGVTPPANFTQGEDVFHAPYVANQGWYDITKTFNGKDDLLCGAATAGNMLHWWFDQNKEQIKRYLEEHPEKQKINFNGEQMFDVKEAIDTKNHQLDSKLFEYFKEKAFPYLSTKHLGVFPDHVIDMFINGYRLSLTNHGPTPVKEGSKDPRGGIFDAVFTRGDQSKLLTSRHDFKEKNLKEISDLIKKELTEGKALGLSHTYANVRINHVINLWGADFDSNGNLKAIYVTDSDSNASIGMKKYFVGVNSAGKVAISAKEIKEDNIGAQVLGLFTLSTGQDSWNQTN
B4: PRT-5 (protein)
chain: MANQEIRYSEVTPYHVTSVWTKGVTPPANFTQGEDVFHAPYVANQGWYDITKTFNGKDDLLCGAATAGNMLHWWFDQNKDQIERYLKKHPEKQKINFNGEQMFDVKEAIDTKNSQLDSKLFEYFKEKAFPYLSTKHLGVFPDHVIDMFINGYRLSLTNHGPTPVKEGSKDPRGGIFDAVFTRGDQSKLLTSRHDFKEKNLKEISDLIKKELTEGKALGLSHTYANVRINHVINLWGADFDSNGNLEAIYVTDSDSNASIGMKKYFVGVNSAGKVAISAKEIKEDNIGAQVLGLFTLSTGQDIWNQTN
B5: PRT-6 (protein)
chain: MANQEIRYSEVTPYHVTSVWTKGVTPPANFTQGEDVFHAPYVANQGWYDITKTFNGKDDLLCGAATAGNMLHWWFDQNKEQIERYLKEHPEKQKINFNGEQMFDVKEAIDTKNSQLDSKLFEYFKEKAFPYLSTKHLGVFPDHVIDMFINGYRLSLTNHGPTPVKEGSKDPRGGIFDAVFTRGDQSKLLTSRHDFKEKNLKEISDLIKKELTEGKALGLSHTYANVRINHVINLWGADFDSNGNLKAIYVTDSDSNASIGMKKYFVGVNSAGKVAISAKEIEGDNIGAQVLGLFTLSTGQDIWNQTN
B6: PRT-71 (protein)
chain: MANQEIRYSEVTPYHVTSVWTKGVTPPANFTQGEDVFHAPYVANQGWYDITKTFNGKDDLLCGAATAGNMLHWWFDQNKEEIEAYLKKHPEKQKIMFGDQELLDVRKVINTKGSQTNSELFNYFRDKAFPGLSARRLGVMPDLVLDMFINGYYLNVYKTQTTDVNRTYQEKDKRGGIFDAVFTRGDQSKLLTSRHDFKEKNLKEISDLIKKELTEGKALGLSHTYANVRINHVINLWGADFDSNGNLKAIYVTDSDSNASIGMKKYFVGVNSAGKVAISAKEIKEDNIGAQVLGLFTLSTGQDIWNQTN
B7: PRT-77 (protein)
chain: MANQEIRYSEVTPYHVTSVWTKGVTPPTNFTQGEDVFHAPYVANQGWYDITKTFNGKDNLLCGAATAGNMLHWWFDQNKEEIERYLKKHPEKQKIMFGDQELLDVRKVINTKDDQKNSELFNYFRDKAFPGLSARRLGVMPDLVLDMFINGYYLNVGKTQTTDVNRTYQEKDKRGGIFDAVFTRGDQSKLLTSRHDFKEKNLKEISDLIKQELTEGKALGLSHTYANVRINHVINLWGADFDSNGNLEAIYVTDSDSNASIGMKKYFVGVNSAGKVAISAKEIEEDNIGAQVLGLFTLSTGQDIWNQTN
B8: PRT-74 (protein)
chain: MANQEIRYSEVTPSHVTSVWTKGVTPPANFTQGEDVFHAPYVANQGWYDITKTFNGKDNLLCGAATAGNMLHWWFDQNKEEIEAYLKKHPEKQKIMFGDQELLDVRKVINTKDSQTNSELFNYFRDKAFPGLSARRLGVMPDLVLDMFINGYYLNVYKTQTTDVNRTYQEKDRRGGIFDAVFTRGDQSKLLTSRHDFKEKTLKEISDLIKKELTEGKALGLSHTYANVRINHVINLWGADFDSNGNLKAIYVTDSDSNASIGMKKYFVGVNSAGKVAISAKEIKEDNIGAQVLGLFTLSTGQDIWNQTN
B9: PRT-72 (protein)
chain: MANQEIRYSEVTPYHVTSVWTKGVTPPAKFTQGEDVFHAPYVANQGWYDITKTFNGKDDLLCGAATAGNMLHWWFDQNKEYIEAYLKKHPEKQKIMFGDQELLDVRKVINTKGDQTNSELFNYFRDKAFPYLSARRLGVMPDLVLDMFINGYYLNVTKTQTTDVNRTYQEKDRRGGIFDAVFTRGDQSKLLTSRHDFKEKNLKEISDLIKKELTEGKALGLSHTYANVRINHVINLWGADFDSNGNLKAIYVTDSDSNASIGMKKYFVGVNSAGKVAISAKEIKEDNIGAQVLGLFTLSTGQDIWNQTN
B10: PRT-78 (protein)
chain: MANQEIRYSEETPYHVTSVWTKGVTPPADFTQGEDVFHAPYVANQGWYDITKTFNGKDDLLCGAATAGNMLHWWFDQNKEYIEAYLKKHPEKQKIMFGDQELLDVRKAINTKGSQKNSELFNYFRDKAFPNLSARRLGVMPDLVLDMFINGYYLNVTKTQTTDVNRTYQEKDKRGGIFDAVFTRGDQSKLLTSRHDFKEKGLKEISDLIKQELTEGKALGLSHTYANVRINHVINLWGADFDSDGNLKAIYVTDSDSNASIGMKKYFVGVNSAGKVAISAKEIKEDNIGAQVLGLFTLSTGQDIWNQTN
B11: PRT-73 (protein)
chain: MANQEIRYSEVTPYHVTSVWTKGVTPPANFTQGEDVFHAPYVANQGWYDITKTFNGKDDLLCGAATAGNMLHWWFDQNKEKIEAYLKKHPEKQKIMFGDQELLDVRKVINTKDDQTNSELFNYFRDKAFPGLSARRLGVMPDLVLDMFINGYYLNVTKTQTTDVNRTYQEKDRRGGIFDAVFTRGDQSKLLTSRHDFKEKNLKEISDLIKKELTEGKALGLSHTYANVRINHVINLWGADFDSNGNLKAIYVTDSDSNASIGMKKYFVGVNSAGKVAISAKEIKEDNIGAQVLGLFTLSTGQDSWNQTN
B12: PRT-75 (protein)
chain: MANQEIRYSEVTPYHVTSVWTKGVTPPAKFTQGEDVFHAPYVANQGWYDITKTFNGKDDLLCGAATAGNMLHWWFDQNKEKIEAYLKKHPEKQKIMFGDQELLDVRKVINTKDDQTNSELFNYFRDKAFPGLSARRLGVMPDLVLDMFINGYRLNVTKTQTTDVNETYQTKDKRGGIFDAVFTRGDQSKLLTSRHDFKEKNLKEISDLIKKELTEGKALGLSHTYANVRINHVINLWGADFDSNGNLKAIYVTDSDSNASIGMKKYFVGVNSAGKVAISAKEIKDDNIGAQVLGLFTLSTGQDIWNQTN
B13: PRT-80 (protein)
chain: MANQEIRYSEVTPKHITSVWTKGVTPPTQFIQGEDVFHAPYKANQGWYDITKTFNGKDDLLCGAATAGNMLHWWFDQNKEEIEAYLKKHPEKQKIMFGDQELLDVRKAINTKDDQTNSELFNYFRDKAFPNLSARRLGVMPDHVLDMFINGYYLNVNKTQTTDVNRTYQEKDPRGGIFDAVFTRGDQSKLLTSRHDFKEKTLKEISDLIKQELTEGKALGLSHTYANVRINHVINLWGADFDSNGNLKAIYVTDSDSDASIGMKKYFVGVNSAGKVAISAKEIKGDNIGAQVLGLFTLSTGQDIWNQTN

In this series the target is pooled human IgG.
Protein B1 returned an Enzyme Activity Endpoint Assay (purified): Fab′2 of 20 ng/µL, an Enzyme Activity Endpoint Assay (purified): Fc of 78 ng/µL, an Enzyme Activity Endpoint Assay (purified): IgG of 37 ng/µL and an Enzyme Activity Endpoint Assay (purified): scIgG of 38 ng/µL.
Taken in the same sequence, the figures for B2 were 0 ng/µL, 44 ng/µL, 72 ng/µL and 38 ng/µL.
Taken in the same sequence, the figures for B3 were 47 ng/µL, 124 ng/µL, 14 ng/µL and 14 ng/µL.
The protein B4 displayed an Enzyme Activity Endpoint Assay: Fab′2 of 34 ng/µL, an Enzyme Activity Endpoint Assay: Fc of 117 ng/µL, an Enzyme Activity Endpoint Assay: IgG of 18 ng/µL and an Enzyme Activity Endpoint Assay: scIgG of 34 ng/µL.
Regarding B5, the Enzyme Activity Endpoint Assay: Fab′2 worked out at 49 ng/µL, the Enzyme Activity Endpoint Assay: Fc was 129 ng/µL, the Enzyme Activity Endpoint Assay: IgG came to 16 ng/µL and the Enzyme Activity Endpoint Assay: scIgG was found to be 15 ng/µL.
In turn, B6 came in with an Enzyme Activity Endpoint Assay (purified): Fab′2 of 53 ng/µL, an Enzyme Activity Endpoint Assay (purified): Fc of 126 ng/µL, an Enzyme Activity Endpoint Assay (purified): IgG of 25 ng/µL and an Enzyme Activity Endpoint Assay (purified): scIgG of 0 ng/µL.
On to B7, for which the Enzyme Activity Endpoint Assay (purified): Fab′2 was determined as 33 ng/µL, the Enzyme Activity Endpoint Assay (purified): Fc was 104 ng/µL, the Enzyme Activity Endpoint Assay (purified): IgG was 14 ng/µL and the Enzyme Activity Endpoint Assay (purified): scIgG is 17 ng/µL.
The corresponding values for B8 are 26 ng/µL, 73 ng/µL, 23 ng/µL and 27 ng/µL.
Taken in the same sequence, the figures for B9 were 41 ng/µL, 100 ng/µL, 14 ng/µL and 8 ng/µL.
The corresponding values for B10 are 34 ng/µL, 94 ng/µL, 21 ng/µL and 11 ng/µL.
On to B11, for which the Enzyme Activity Endpoint Assay (purified): Fab′2 stood at 52 ng/µL, the Enzyme Activity Endpoint Assay (purified): Fc was 105 ng/µL, the Enzyme Activity Endpoint Assay (purified): IgG came out at 28 ng/µL and the Enzyme Activity Endpoint Assay (purified): scIgG turned out to be 5 ng/µL.
Taken in the same sequence, the figures for B12 were 12 ng/µL, 76 ng/µL, 8 ng/µL and 54 ng/µL.
Taken in the same sequence, the figures for B13 were 15 ng/µL, 70 ng/µL, 29 ng/µL and 34 ng/µL.
